In patent publication US10378034B2, “Use of a N-acetylneuraminate lyase derived from the bacterium Aliivibrio salmonicida in the production of neuraminic acid and derivatives thereof” (Universitetet i Tromsø-Norges Arktiske Universitet, priority 2014, dated 2019):

Key:
[1] = TBA assay, condensation activity: pH and temperature profiles; format: biochemical
Description: Both the condensation and cleavage activities of NAL were assessed using the modified thiobarbituric acid (TBA) assay developed by Aminoff (1961) and Warren (1959). The condensation activity was determined by incubating 50 μl of a reaction mixture containing 15 mM sodium pyruvate, 15 mM ManNAc, 124 mM HEPES pH 8.0 and different concentrations of enzyme depending on assay type at selected temperatures for the required amount of time. The reaction was terminated by adding 137 μl 2.5 mg/ml sodium periodate in 57 mM H2SO4, followed by incubation at 37° C. for 15 min with shaking at 1350 rpm. Sodium arsenite (50 μl, 25 mg/ml sodium arsenite in 0.5 M HCl) was added resulting in brown color. The tubes were shaken manually until the brown color disappeared. 2-thiobarbituric acid solution (100 μl, 71 mg/ml adjusted to pH 9.0) was subsequently added, and the tubes were incubated in boiling water for 7.5 min. […] The organic phase containing the red chromophore (200 μl) was used for measurement of absorbance at 549 nm in a spectrophotometer (SpectraMax M2e, Molecular Devices). […]
pH profiles were determined by assaying the enzyme in triplicate for both condensation and cleavage directions at pH values ranging from 5.5 to 11.0 with 0.5 pH unit intervals. […] Temperature profiles were determined for both directions by assaying the enzyme in triplicate from 4 to 80° C. in HEPES buffer pH 8.0. […]

[2] = Comparative specific activity, condensation reaction (TBA assay); format: biochemical
Description: Both the condensation and cleavage activities of NAL were assessed using the modified thiobarbituric acid (TBA) assay developed by Aminoff (1961) and Warren (1959). The condensation activity was determined by incubating 50 μl of a reaction mixture containing 15 mM sodium pyruvate, 15 mM ManNAc, 124 mM HEPES pH 8.0 and different concentrations of enzyme depending on assay type at selected temperatures for the required amount of time. The reaction was terminated by adding 137 μl 2.5 mg/ml sodium periodate in 57 mM H2SO4, followed by incubation at 37° C. for 15 min with shaking at 1350 rpm. Sodium arsenite (50 μl, 25 mg/ml sodium arsenite in 0.5 M HCl) was added resulting in brown color. The tubes were shaken manually until the brown color disappeared. 2-thiobarbituric acid solution (100 μl, 71 mg/ml adjusted to pH 9.0) was subsequently added, and the tubes were incubated in boiling water for 7.5 min. The tubes were incubated on ice for 5 min and allowed to remain at room temperature for 5 min. The red chromophore was extracted by addition of acidic butanol (1 ml of acidic butanol with 5% HCl) and horizontal shaking for 10 min. Tubes were centrifuged at 16060×g, 7 min (room temperature) to separate the organic and inorganic phases. The organic phase containing the red chromophore (200 μl) was used for measurement of absorbance at 549 nm in a spectrophotometer (SpectraMax M2e, Molecular Devices). The amount of Neu5Ac produced was inferred from a standard curve. To generate a standard curve, different concentrations of Neu5Ac (0.031 mM-1 mM) were treated with 137 μl of 2.5 mg/ml sodium periodate in 57 mM H2SO4 and the TBA assay procedure was followed as described above.
Standard reaction mixtures were incubated at room temperature for 1 h before being subjected to the TBA assay.

[3] = Temperature shift experiment on production yield of Neu5Ac; format: biochemical; details: shifting reaction temperature from 23° C. to 4° C.; 50 mM pyruvate, 5 mM ManNAc
Description: The effect of substrate ratio on the conversion yield of Neu5Ac was studied by varying the pyruvate concentration while the concentration of ManNAc was kept constant. The pyruvate concentration ranged from 2.5 to 70 mM, whereas the ManNAc concentration was 5 mM, resulting in a pyruvate:ManNAc ratio ranging from 0.5 to 14. The condensation reaction mixture containing different ratios of pyruvate and ManNAc along with 124 mM HEPES buffer pH 8.0 and enzyme was incubated at room temperature for 7.5 h. […] Thus, a temperature shift experiment was carried out to see how much the Neu5Ac production could be increased by altering the equilibrium once it had been achieved. For a temperature shift experiment, the reaction mixture (enzyme, 50 mM pyruvate, 5 mM ManNAc, 124 mM HEPES buffer pH 8.0) was incubated at room temperature for 7.5 h and after reaching equilibrium it was shifted to 4° C. and incubated for 15 h. As a control, one reaction was kept at room temperature and another at 4° C. for all the time. The difference in yield between the temperature shifted and non-shifted reactions were calculated. The standard TBA assay was used to assess the activity.

[4] = Thermofluor thermal denaturation; format: physicochemical
Description: Long term stability of AsNAL at different pH was studied by incubating the enzyme at pH values from 6.0 to 11.0 at room temperature for a month. Buffers used were Sodium phosphate (pH 6.0-7.0), HEPES (pH 7.0-8.0), Tris-HCl (pH 8.0-9.0) and glycine (pH 9.0-11.0). The enzyme activity in the condensation direction was measured using the standard reaction mixture incubated at room temperature for 1 h, with subsequent TBA assay. The stability of AsNAL at different pH was also studied using the thermofluor method described by Ericsson et al. (2006) where increased or decreased stability is related to the increase or decrease in the melting temperature of the protein. For the thermofluor assay, the protein was dialyzed overnight at 4° C. against a buffer containing 10 mM HEPES pH 7.5, 150 mM NaCl and 2 mM β-ME in Pierce Slide-A-Lyzer dialysis cassettes with a 3.5 kDa cutoff. The dialyzed protein was mixed with 2 μl of 300× Sypro® Orange protein gel stain (Sigma) and 100 mM of different buffers ranging from pH 5.0 to pH 9.0. Thermal shifts were screened for by heating in an iCycler iQ Real Time PCR Detection System (Bio-Rad Laboratories) from 1 to 80° C. in increments of 1° C./min. […]

[5] = TBA assay, cleavage activity: pH and temperature profiles; format: biochemical
Description: The cleavage activity was determined by incubating 50 μl of a reaction mixture containing 5 mM Neu5Ac, 124 mM HEPES pH 8.0 and different concentrations of enzyme depending on assay type at selected temperatures for the required amount of time. Termination of the reactions and subsequent steps of the assay are as described above. The decrease in absorbance is correlated to the increase in cleavage activity.
pH profiles were determined by assaying the enzyme in triplicate for both condensation and cleavage directions at pH values ranging from 5.5 to 11.0 with 0.5 pH unit intervals. Sodium phosphate buffer was used from pH 5.5 to 7.5, HEPES buffer from pH 6.5 to 8.0, Tris-HCl buffer from pH 7.5 to 9.0 and Glycine buffer from pH 9.0 to 11.0. The reaction mixture was incubated at room temperature for 1 h before being subjected to the TBA assay. Temperature profiles were determined for both directions by assaying the enzyme in triplicate from 4 to 80° C. in HEPES buffer pH 8.0. The reaction mixture was incubated for 30 min at selected temperatures and the reaction was terminated by adding 2 μl of concentrated H2SO4 and then subjected to the TBA assay.

[6] = at 10° C., relative to highest value

B1: AsNAL: N-acetylneuraminate lyase isolated from the psychrophilic bacterium Aliivibrio salmonicida LFI1238, recombinantly expressed in E. coli (protein, listed as Aliivibrio salmonicida)
chain: MKKLTGLIAAPHTPFDSSSNVNFEEIDKIAKHLINDGVKGIYVCGTTGEGIHCSVEERKAIAERWVSACNHKLDIIVHTGALSIVDTLELTRHADTLDILATSAIGPCFFKPGSVSDLVEYCATIAAAAPSKGFYYYHSGMSGVNLNMEEFLIQADKRIPNLSGLKFNSGDLYEYQRCLRACDGKFDVPFGVDEFLPGALAVGAKSAVGSTYNYAAPHFNSIIEAFNKGDHDAVFNKMTNVIELIRVLVEFGGVAAGKIAMELHDINAGDPRLPLMPLSAEQKLTVVEKMRAANFLK
[1]; HEPES buffer pH 8.0, 30 min
  optimal temperature, condensation reaction: 20 °C
[1]; [6]
  condensation activity retained: 75%
[2]; 4° C.
  specific activity of the condensation reaction, higher than EcNAL: 40%
[2]; 23° C.
  specific activity of the condensation reaction, higher than EcNAL: 60%
[2]; 37° C.
  specific activity of the condensation reaction, higher than EcNAL: 40%
[3]
  increase in yield of Neu5Ac: 30%
[4]; 500 mM NaCl
  melting temperature (thermofluor): 76.9 °C
[4]; milli-Q water
  melting temperature (thermofluor): 73.15±0.21 °C
[5]; HEPES buffer pH 8.0, 30 min
  optimal temperature, cleavage reaction: 65 °C
[5]; [6]
  cleavage activity retained: 30%
